In patent publication US20080009025A1, “PROTEIN KINASE REGULATION” (priority 1999, published 2008):
Where a chain is given by its changes, count along the chain named. In names and notes the source's numbering stands.

T1: GST-PDK1 (Homo sapiens, UniProt O15530)
T1 construct: Full length PDK1 (residues 1-556); made in house; host or cells: 293 cells
T1 sequence (O15530 1-556): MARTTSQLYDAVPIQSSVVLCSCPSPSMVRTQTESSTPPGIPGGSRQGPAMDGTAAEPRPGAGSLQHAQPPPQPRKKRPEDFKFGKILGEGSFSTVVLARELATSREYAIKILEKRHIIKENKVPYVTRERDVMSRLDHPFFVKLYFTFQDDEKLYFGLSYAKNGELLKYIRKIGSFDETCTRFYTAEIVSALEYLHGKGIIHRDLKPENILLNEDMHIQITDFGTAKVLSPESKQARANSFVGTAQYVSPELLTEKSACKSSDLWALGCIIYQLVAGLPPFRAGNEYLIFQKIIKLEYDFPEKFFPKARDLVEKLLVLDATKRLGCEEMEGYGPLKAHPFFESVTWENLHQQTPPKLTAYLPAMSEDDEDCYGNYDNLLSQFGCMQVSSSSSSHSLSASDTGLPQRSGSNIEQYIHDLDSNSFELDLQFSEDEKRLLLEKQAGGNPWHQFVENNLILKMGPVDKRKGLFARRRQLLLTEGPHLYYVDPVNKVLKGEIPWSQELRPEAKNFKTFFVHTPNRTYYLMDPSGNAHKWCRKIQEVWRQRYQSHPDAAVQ

B1: L155D: PDK1 mutant, Leu155 to Asp (protein)
chain: T1 sequence (O15530 1-556) with L155D
modifications: left off: small tags and cut ends
notes: PDK1 mutant, Leu155 to Asp
B2: L155A: PDK1 mutant, Leu155 to Ala (protein)
chain: T1 sequence (O15530 1-556) with L155A
modifications: left off: a dimerising Fc or GST; small tags and cut ends
notes: PDK1 mutant, Leu155 to Ala
B3: Q150A: PDK1 mutant, Gln150 to Ala (protein)
chain: T1 sequence (O15530 1-556) with Q150A
modifications: left off: small tags and cut ends
notes: PDK1 mutant, Gln150 to Ala
B4: I119A: PDK1 mutant, Ile119 to Ala (protein)
chain: T1 sequence (O15530 1-556) with I119A
modifications: left off: small tags and cut ends
notes: PDK1 mutant, Ile119 to Ala
B5: K115A: PDK1 mutant, Lys115 to Ala in the PIF-binding pocket (protein)
chain: T1 sequence (O15530 1-556) with K115A
modifications: left off: small tags and cut ends

Biological target: T1, GST-PDK1
Assay: Thermal denaturation of PDK1 (TM50)
Format: biochemical
Settings: heated 2 min; no PIFtide
Description: A further aspect of the invention provides the use of an interacting polypeptide as defined above, for example comprising the amino acid sequence Phe/Tyr-Xaa-Xaa-Phe/Tyr or an interacting compound of the invention in a method of stabilising a protein kinase having a hydrophobic pocket in the position equivalent to the hydrophobic pocket of Protein Kinase A (PKA) that is defined by residues including Lys76, Leu116, Val80 and/or Lys111 of full-length mouse PKA, wherein the protein kinase is exposed to the compound or polypeptide. Stabilisation may be measured by measuring the TM50 value. The TM50 value is the temperature at which heating for two minutes produces a 50% reduction in protein kinase activity (measured using any appropriate substrate) compared with the protein kinase activity before such heating, as described in Example 2. An increase in the TM50 value, for example by at least about 1, 2, 3, 4, 5, 6, 7, 8, 9, 10 or 15° C. indicates stabilisation.
FIG. 12. PDK1 is activated and stabilised through its interaction with PIFtide. (A) GST-PDK1 activity was measured in the presence of increasing concentrations of wild type (wt) PIFtide (closed circles) or a mutant D978A PIFtide (open circles) using the synthetic peptide substrate termed T308tide, as described in Material and Methods. The data was fitted to a hyperbola using the Kaleidagraph™ software. […]

| Molecule | TM50 value [°C] |
| --- | --- |
| B1 | 42 |

Tested on: S6K1[412E]
Assay: Activation of S6K1[412E] by PDK1 PIF pocket mutants
Format: biochemical, human
Settings: not given
Description: (§1) FIG. 20. Effect of PIFtide on the activation of S6K1 and SGK1 by PDK1 PIF pocket mutants (155A, 115A, 119A, 150A). GST-PDK1, GST-PDK1 L155E, 155A, 115A, 119A and 150A were tested for their ability to activate His-S6K1 412E and GST-SGK1 422D. The phosphorylation and activation of substrates was performed as described in FIG. 17. When PIFtide was included in the reaction, it was pre-incubated on ice for ˜15 min until the reaction was initiated with the addition of ATP-Mg.
(§2) Activation of AGC kinase PDK1 substrates. Phosphorylation reactions were carried out as above except that non-radioactive ATP replaced [γ-^32P]ATP. Following 10 min at 30° C., cocktail (30 μl) containing 50 mM Tris-HCl pH 7.5, 0.1% (by vol) 2-mercaptoethanol, 10 mM magnesium chloride, […], 0.5 μM microcystin-LR and 100 μM peptide substrate crosstide (GRPRTSSFAEG) and [γ-^32P]ATP (˜600 c.p.m./pmol). Reactions were stopped by the addition of 25 μl of 0.2 M EDTA pH 8.0, spotted onto P81 phosphocellulose paper, washed and analysed as described for the assay of MAP kinase. The amount of PDK1 was in the assay was varied so that the assay was in the linear range. One unit of activity is deficed as phosphorylation 1 nmol of substrate in 1 min.

| Molecule | rate of activation of S6K1[412E] compared with wild type PDK1 |
| --- | --- |
| B2 | only marginally lower |
| B3 | only marginally lower |
| B4 | only marginally lower |
| B5 | only marginally lower |

Tested on: SGK1[T422D]
Assay: Activation of SGK1[T422D] by PDK1 PIF pocket mutants
Format: biochemical
Settings: not given
Description: as §1, §2

| Molecule | rate of activation of SGK1[T422D] compared with wild type PDK1 |
| --- | --- |
| B2 | markedly reduced |
| B3 | markedly reduced |
| B4 | markedly reduced |
| B5 | markedly reduced |
